US20250064988A1

How the values were obtained:
[1] = target: Glycoprotein IIb (GPIIb, also known as antigen CD41) (UniProt P08514); experiment: flow cytometry, percent of FDPDs stained; batch 4
[2] = target: Glycoprotein IIb (GPIIb, also known as antigen CD41) (UniProt P08514); experiment: flow cytometry, percent of FDPDs stained; batch 3
[3] = target: Glycoprotein IIb (GPIIb, also known as antigen CD41) (UniProt P08514); experiment: flow cytometry, percent of FDPDs stained; batch 5
[4] = target: Glycoprotein IIb (GPIIb, also known as antigen CD41) (UniProt P08514); experiment: flow cytometry, percent of FDPDs stained; batch 6
[5] = target: Glycoprotein IIb (GPIIb, also known as antigen CD41) (UniProt P08514); experiment: flow cytometry, percent of FDPDs stained; mean of 7 batches
[6] = target: Glycoprotein IIb (GPIIb, also known as antigen CD41) (UniProt P08514); experiment: flow cytometry, percent of FDPDs stained; batch 2
[7] = target: Glycoprotein IIb (GPIIb, also known as antigen CD41) (UniProt P08514); experiment: flow cytometry, percent of FDPDs stained; batch 7
[8] = target: Glycoprotein IIb (GPIIb, also known as antigen CD41) (UniProt P08514); experiment: flow cytometry, percent of FDPDs stained; batch 1
[9] = target: P-selectin (also called CD62P) (human) (UniProt P16109); experiment: flow cytometry, percent of CD41-positive FDPDs stained; batch 7
Chain of UniProt P16109 (P16109 42-830): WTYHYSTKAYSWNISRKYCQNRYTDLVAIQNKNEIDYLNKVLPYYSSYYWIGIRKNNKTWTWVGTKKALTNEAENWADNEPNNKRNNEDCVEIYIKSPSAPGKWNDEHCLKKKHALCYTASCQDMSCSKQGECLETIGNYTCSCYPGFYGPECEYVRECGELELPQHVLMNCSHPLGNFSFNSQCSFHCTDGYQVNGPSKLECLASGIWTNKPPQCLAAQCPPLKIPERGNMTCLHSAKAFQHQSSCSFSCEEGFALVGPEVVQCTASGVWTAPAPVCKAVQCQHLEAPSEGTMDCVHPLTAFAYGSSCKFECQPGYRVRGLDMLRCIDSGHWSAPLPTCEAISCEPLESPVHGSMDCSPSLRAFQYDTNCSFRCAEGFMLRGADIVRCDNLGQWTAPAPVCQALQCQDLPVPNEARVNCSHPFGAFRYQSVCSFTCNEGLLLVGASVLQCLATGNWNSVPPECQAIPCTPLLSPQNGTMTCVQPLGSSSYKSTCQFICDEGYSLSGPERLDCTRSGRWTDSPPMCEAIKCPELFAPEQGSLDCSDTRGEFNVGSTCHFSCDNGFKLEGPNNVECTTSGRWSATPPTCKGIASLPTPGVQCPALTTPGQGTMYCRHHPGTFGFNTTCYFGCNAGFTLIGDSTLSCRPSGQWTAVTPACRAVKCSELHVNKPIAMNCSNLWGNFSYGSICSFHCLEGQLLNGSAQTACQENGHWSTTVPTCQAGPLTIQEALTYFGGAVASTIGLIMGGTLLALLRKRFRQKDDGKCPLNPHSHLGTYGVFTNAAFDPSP

[10] = target: P-selectin (also called CD62P) (human) (UniProt P16109); experiment: flow cytometry, percent of CD41-positive FDPDs stained; batch 4
[11] = target: P-selectin (also called CD62P) (human) (UniProt P16109); experiment: flow cytometry, percent of CD41-positive FDPDs stained; batch 3
[12] = target: P-selectin (also called CD62P) (human) (UniProt P16109); experiment: flow cytometry, percent of CD41-positive FDPDs stained; batch 2
[13] = target: P-selectin (also called CD62P) (human) (UniProt P16109); experiment: flow cytometry, percent of CD41-positive FDPDs stained; batch 6
[14] = target: P-selectin (also called CD62P) (human) (UniProt P16109); experiment: flow cytometry, percent of CD41-positive FDPDs stained; batch 1
[15] = target: P-selectin (also called CD62P) (human) (UniProt P16109); experiment: flow cytometry, percent of CD41-positive FDPDs stained; mean of 7 batches
[16] = target: P-selectin (also called CD62P) (human) (UniProt P16109); experiment: flow cytometry, percent of CD41-positive FDPDs stained; batch 5
[17] = target: P-selectin (also called CD62P) (human) (UniProt P16109); experiment: flow cytometry, human apheresis platelets without TRAP-6
[18] = target: P-selectin (also called CD62P) (human) (UniProt P16109); experiment: flow cytometry, human apheresis platelets after 20 µM TRAP-6
[19] = target: Thrombospondin (TSP1) (UniProt P07996); experiment: flow cytometry, rehydrated baked FDPDs, average of lots
Chain of UniProt P07996 (P07996 19-1170 limits assumed): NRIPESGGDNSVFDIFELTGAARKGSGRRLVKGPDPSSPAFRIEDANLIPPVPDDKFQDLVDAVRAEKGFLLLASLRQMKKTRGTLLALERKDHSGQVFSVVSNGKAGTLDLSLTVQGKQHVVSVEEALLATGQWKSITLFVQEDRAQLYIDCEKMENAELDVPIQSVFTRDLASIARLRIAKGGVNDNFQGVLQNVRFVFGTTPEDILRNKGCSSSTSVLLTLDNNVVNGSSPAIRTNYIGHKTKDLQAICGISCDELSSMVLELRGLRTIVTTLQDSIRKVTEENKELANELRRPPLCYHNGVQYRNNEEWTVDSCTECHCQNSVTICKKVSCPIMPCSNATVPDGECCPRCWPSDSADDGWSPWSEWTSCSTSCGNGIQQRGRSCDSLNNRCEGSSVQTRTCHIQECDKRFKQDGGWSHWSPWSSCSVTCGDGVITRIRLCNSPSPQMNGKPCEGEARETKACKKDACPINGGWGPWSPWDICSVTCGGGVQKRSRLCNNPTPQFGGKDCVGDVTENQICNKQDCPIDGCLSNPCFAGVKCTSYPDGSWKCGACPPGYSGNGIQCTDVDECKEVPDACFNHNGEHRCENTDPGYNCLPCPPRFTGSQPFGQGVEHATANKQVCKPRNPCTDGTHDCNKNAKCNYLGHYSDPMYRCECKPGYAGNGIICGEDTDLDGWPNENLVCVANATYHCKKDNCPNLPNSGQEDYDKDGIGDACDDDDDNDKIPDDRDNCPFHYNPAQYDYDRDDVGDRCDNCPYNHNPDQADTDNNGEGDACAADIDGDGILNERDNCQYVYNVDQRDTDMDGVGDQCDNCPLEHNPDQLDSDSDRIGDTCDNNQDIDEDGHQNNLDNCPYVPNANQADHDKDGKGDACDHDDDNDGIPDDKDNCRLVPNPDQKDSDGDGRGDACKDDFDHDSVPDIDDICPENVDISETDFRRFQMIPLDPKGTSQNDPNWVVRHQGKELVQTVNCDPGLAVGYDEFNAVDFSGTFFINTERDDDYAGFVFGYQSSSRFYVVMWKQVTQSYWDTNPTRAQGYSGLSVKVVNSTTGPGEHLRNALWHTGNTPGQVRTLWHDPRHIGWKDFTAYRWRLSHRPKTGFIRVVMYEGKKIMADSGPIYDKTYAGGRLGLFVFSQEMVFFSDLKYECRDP

[20] = target: Thrombospondin (TSP1) (UniProt P07996); experiment: flow cytometry, fresh washed platelets activated with collagen and thrombin
[21] = target: Thrombospondin (TSP1) (UniProt P07996); experiment: flow cytometry, resting fresh washed platelets
[22] = target: Von Willebrand factor (vWF) (UniProt P04275); experiment: flow cytometry, rehydrated baked FDPDs, average of lots
Chain of UniProt P04275 (P04275 764-2813 limits assumed): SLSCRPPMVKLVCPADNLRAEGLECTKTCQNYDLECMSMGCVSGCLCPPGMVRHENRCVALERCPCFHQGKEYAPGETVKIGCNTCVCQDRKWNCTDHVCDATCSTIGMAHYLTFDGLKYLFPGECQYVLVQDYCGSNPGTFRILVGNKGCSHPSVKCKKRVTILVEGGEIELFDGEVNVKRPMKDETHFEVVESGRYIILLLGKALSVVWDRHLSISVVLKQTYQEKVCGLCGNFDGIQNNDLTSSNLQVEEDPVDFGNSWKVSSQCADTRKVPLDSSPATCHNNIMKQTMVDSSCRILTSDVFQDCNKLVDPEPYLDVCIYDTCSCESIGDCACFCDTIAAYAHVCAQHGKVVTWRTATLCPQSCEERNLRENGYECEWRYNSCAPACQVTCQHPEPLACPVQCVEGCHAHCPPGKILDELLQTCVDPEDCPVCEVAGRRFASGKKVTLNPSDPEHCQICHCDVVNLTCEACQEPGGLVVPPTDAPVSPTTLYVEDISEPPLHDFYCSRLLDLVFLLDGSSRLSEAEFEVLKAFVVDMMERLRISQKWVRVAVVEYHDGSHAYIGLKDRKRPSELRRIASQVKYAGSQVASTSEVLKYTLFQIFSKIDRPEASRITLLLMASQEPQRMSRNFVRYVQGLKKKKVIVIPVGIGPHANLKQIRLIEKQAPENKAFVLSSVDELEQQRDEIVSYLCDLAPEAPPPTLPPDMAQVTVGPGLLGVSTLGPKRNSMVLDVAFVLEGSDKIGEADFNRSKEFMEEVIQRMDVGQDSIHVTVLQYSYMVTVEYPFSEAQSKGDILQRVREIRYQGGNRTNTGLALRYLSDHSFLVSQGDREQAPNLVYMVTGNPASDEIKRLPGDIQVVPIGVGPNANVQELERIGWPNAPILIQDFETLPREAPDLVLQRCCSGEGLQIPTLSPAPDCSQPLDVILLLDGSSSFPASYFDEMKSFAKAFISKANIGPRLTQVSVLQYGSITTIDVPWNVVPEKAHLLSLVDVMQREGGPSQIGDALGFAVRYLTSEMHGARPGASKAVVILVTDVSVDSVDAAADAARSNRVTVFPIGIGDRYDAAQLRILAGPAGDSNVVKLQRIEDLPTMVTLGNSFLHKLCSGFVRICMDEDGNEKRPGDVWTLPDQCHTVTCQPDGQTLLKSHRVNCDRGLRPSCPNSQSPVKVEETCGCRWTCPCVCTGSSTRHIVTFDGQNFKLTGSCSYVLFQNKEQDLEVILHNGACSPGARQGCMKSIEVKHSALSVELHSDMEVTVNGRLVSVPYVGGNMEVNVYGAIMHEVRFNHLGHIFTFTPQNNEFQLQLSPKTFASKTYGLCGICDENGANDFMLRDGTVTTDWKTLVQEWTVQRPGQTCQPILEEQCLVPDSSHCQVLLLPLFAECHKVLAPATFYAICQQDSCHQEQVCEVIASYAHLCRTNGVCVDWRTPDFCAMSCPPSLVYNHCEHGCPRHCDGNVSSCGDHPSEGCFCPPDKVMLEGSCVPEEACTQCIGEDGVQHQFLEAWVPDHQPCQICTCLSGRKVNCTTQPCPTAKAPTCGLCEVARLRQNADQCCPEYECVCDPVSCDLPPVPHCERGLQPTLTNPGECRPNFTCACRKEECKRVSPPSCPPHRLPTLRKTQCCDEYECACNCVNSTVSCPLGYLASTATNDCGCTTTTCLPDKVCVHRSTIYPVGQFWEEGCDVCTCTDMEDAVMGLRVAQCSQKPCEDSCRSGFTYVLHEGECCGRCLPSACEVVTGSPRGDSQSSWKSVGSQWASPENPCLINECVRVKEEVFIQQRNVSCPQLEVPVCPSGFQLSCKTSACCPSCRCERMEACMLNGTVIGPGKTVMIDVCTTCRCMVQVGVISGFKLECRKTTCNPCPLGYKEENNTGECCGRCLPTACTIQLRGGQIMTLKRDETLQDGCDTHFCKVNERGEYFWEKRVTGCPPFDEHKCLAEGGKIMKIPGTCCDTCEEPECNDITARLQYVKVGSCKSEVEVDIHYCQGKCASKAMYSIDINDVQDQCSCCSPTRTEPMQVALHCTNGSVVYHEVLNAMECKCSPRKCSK

[23] = target: Von Willebrand factor (vWF) (UniProt P04275); experiment: flow cytometry, fresh washed platelets activated with collagen and thrombin
[24] = target: Von Willebrand factor (vWF) (UniProt P04275); experiment: flow cytometry, resting fresh washed platelets

Chain of UniProt P08514 (P08514 32-1039 limits assumed): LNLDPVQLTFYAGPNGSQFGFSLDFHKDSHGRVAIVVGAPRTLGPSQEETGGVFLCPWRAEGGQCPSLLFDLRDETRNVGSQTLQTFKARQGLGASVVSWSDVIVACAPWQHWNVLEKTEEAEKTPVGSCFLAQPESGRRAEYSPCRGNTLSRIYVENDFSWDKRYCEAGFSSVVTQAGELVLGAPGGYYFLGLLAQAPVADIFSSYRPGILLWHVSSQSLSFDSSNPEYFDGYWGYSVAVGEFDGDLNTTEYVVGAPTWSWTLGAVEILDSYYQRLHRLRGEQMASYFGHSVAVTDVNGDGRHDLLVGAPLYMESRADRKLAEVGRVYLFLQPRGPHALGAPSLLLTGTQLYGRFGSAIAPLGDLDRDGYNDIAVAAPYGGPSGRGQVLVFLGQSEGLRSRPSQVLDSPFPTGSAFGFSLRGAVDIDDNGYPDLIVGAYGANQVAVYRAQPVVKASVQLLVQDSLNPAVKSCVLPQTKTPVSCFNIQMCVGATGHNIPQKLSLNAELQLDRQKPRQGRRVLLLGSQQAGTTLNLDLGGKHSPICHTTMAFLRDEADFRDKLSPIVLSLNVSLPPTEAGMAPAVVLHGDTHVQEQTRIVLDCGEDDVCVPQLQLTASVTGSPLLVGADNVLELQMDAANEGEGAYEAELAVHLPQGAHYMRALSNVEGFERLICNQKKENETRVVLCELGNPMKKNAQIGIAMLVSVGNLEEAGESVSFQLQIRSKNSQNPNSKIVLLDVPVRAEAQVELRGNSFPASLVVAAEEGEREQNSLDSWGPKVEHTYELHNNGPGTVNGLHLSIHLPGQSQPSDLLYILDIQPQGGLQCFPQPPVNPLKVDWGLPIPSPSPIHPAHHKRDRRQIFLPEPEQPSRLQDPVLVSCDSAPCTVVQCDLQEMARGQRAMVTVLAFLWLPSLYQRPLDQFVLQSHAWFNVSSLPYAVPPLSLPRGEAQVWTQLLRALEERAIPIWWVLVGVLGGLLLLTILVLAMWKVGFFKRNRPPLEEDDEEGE

A CD41 Positivity (%) [1] of 78.2%, a CD41 Positivity (%) [2] of 85.7% and a CD41 Positivity (%) [3] of 81.5% were found for “anti-CD41 antibody (Beckman Coulter part #IM1416U)” in this work. The CD41 Positivity (%) [4] was 84%, the CD41 Positivity (%) [5] was 81.3% and the CD41 Positivity (%) [6] was 79.4%. The CD41 Positivity (%) [7] was 78.5% and the CD41 Positivity (%) [8] was 81.5%.
A CD62 Positivity (%) [9] of 90.7%, a CD62 Positivity (%) [10] of 92.4% and a CD62 Positivity (%) [11] of 89.8% were found for “anti-CD62P antibody (BD Biosciences Cat. No. 550888)” in this work. The CD62 Positivity (%) [12] was 93.1%, the CD62 Positivity (%) [13] was 87.3% and the CD62 Positivity (%) [14] was 94.2%. For the same substance, the CD62 Positivity (%) [15] was 91.4% and the CD62 Positivity (%) [16] was 92.5%.
An MFI [17] of 2350 MFI and an MFI [18] of 127000 MFI were found for “anti-CD62P-PE antibody (BD Pharmingen Cat #550561 Lot #6322976)” in this work.
An MFI [19] of 91400 MFI, an MFI [20] of 3310 MFI and an MFI [21] of 1220 MFI were found for “anti-Thrombospondin-1 (TSP-1) antibody (Santa Cruz Biotech Cat #sc-59887 AF594)” in this work.
An MFI [22] of 14000 MFI, an MFI [23] of 19700 MFI and an MFI [24] of 4770 MFI were found for “anti-Von Willebrand Factor antibody (Novus Biologicals Cat #NBP2-54379PE)” in this work.
